T1: human LAG-3-His (human, UniProt P18627 23-450)
T1 construct: Bought antigen (ArcoBiosystems), 100 nM in solution in the ForteBio assay; also called human LAG-3 antigen (ArcoBiosystems); hLAG-3; not shown: His tag
T1 sequence (looked up): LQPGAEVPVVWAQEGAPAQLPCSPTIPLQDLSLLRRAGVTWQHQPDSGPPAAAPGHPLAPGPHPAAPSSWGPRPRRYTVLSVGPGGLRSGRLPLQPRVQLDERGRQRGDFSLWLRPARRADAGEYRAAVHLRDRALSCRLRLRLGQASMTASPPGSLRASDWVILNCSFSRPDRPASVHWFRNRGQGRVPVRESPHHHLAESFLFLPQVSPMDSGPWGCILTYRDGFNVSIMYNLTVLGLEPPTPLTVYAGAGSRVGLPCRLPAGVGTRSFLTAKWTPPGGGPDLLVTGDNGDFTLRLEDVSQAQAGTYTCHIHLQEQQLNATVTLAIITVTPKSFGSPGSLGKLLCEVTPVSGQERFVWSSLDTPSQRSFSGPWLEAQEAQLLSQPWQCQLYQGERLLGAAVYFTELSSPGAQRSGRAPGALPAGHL

T2: human LAG-3 overexpressed on HEK293 cells (human, UniProt P18627 23-525)
T2 construct: whole, on cells; also called 293-hLAG-3 cells; hLAG-3 on the cell surface
T2 sequence (looked up): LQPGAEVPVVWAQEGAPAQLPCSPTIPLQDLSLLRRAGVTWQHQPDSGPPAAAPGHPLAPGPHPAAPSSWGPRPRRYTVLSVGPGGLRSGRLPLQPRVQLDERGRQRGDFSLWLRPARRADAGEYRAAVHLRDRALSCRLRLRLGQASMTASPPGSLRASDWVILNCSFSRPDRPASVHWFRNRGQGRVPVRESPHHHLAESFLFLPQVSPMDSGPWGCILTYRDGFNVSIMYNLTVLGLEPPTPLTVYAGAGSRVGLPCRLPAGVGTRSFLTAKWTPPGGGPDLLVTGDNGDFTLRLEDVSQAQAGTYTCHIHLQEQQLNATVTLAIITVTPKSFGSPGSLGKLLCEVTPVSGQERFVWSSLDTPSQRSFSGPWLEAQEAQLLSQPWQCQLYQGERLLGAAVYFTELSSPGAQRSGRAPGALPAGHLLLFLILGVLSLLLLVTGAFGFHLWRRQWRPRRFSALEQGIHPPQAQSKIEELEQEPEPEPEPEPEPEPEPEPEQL

T3: mouse LAG-3 overexpressed on CHO cells (mouse, UniProt Q61790 24-521)
T3 construct: whole, on cells; also called CHO-mLAG-3 cells; mouse LAG-3 on the cell surface
T3 sequence (looked up): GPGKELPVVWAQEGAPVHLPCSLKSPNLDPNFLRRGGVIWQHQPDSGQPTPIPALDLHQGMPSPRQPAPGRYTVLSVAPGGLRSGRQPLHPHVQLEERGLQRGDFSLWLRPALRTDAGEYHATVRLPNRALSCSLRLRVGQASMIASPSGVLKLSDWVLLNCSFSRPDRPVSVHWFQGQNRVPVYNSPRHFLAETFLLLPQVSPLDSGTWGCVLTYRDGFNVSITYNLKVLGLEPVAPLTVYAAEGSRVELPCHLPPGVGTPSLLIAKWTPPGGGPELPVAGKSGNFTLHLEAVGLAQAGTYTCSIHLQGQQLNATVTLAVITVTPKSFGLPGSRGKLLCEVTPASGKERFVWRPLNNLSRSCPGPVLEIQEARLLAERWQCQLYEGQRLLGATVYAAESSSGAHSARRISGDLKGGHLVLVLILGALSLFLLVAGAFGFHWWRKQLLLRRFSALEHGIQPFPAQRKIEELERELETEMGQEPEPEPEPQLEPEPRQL


Experiments:
human PD-L1 = biological target: T4, human PD-L1 (human, UniProt Q9NZQ7 19-238); experiment: BLI (ForteBio), antibody loaded on sensor, human PD-L1 in solution
T4 construct: Bought antigen; also called human PD-L1 antigen (Acrobiosystems)
T4 sequence (Q9NZQ7 19-238 limits assumed): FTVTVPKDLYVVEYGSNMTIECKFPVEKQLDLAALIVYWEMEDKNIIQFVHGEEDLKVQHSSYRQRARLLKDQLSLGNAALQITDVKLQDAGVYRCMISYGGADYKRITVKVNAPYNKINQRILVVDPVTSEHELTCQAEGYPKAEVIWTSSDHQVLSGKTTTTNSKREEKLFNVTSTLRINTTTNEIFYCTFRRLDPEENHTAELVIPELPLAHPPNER
Description: The equilibrium dissociation constant (KD) for binding of the anti-PD-L1 antibody (HZ3266-IgG1N297A) to human PD-L1 was determined by biological optical interferometry (ForteBio). A ForteBio affinity assay of prior art was performed (Estep, P., et al, High throughput solution based measurement of antibody-antigen affinity and epitope binning. MAbs, 2013.5(2):270-8).
SD buffer, antibodies, and antigens (including human PD-L1, all purchased from Acrobiosystems) each of 100 μL were added to 96-well black polystyrene half area microplates (Greiner, 675076). The sensors were arranged according to the positions of the samples. The instrument settings were as follows: the operation procedures were Baseline, Loading ˜1 nm, Baseline, Association, and Dissociation. The run time of each procedure was dependent on the rates of association and dissociation. The rotation speed was 400 rpm, and the temperature was 30° C. The KD values were analyzed by ForteBio analysis software.

human LAG-3-His [1] = biological target: T1, human LAG-3-His; experiment: BLI (ForteBio), antibody on AHQ tip, human LAG-3-His 100 nM in solution
Description: (§1) The purified antibody obtained as described above was loaded on-line onto an AHQ sensor (ForteBio) for ForteBio affinity assay. The sensor with the loaded antibody was then exposed to 100 nM of a human LAG-3 antigen (ArcoBiosystems) for 5 minutes before transferring the sensor to the assay buffer for dissociation for 5 minutes for dissociation rate measurement. Kinetic analysis was performed using a 1:1 binding model.

human LAG-3-His [2] = biological target: T1, human LAG-3-His; experiment: BLI (ForteBio), antibody on AHQ tip, human LAG-3-His 100 nM in solution, univalent
Description: as §1

[3] = biological target: T2, human LAG-3 overexpressed on HEK293 …; experiment: flow cytometry on 293-hLAG-3 cells, MFI curve
Description: The binding of the 4 exemplary antibodies of the invention described above to human LAG-3 was measured in a flow cytometry-based assay. 293 cells (293-hLAG-3 cells) over-expressing human LAG-3 were generated by transfecting human embryonic kidney 293 cells (Invitrogen) with pCHO1.0 vectors (Invitrogen) carrying human LAG-3 cDNA (Sino Biological) cloned into multiple cloning sites (MCSs). 293-hLAG-3 cells (0.2×10⁶ cells) were mixed with different concentrations of antibodies (ADI-26789, ADI-26869 and reference 25F7) prepared as described above (the antibodies were serially three-fold diluted from a maximum concentration of 500 nM in PBS containing 0.1% bovine serum albumin (BSA) until the 8th concentration). The cells were incubated on ice for 30 min. The cells were then washed at least twice prior to addition of a secondary antibody (a PE-labeled goat anti-human IgG antibody, Southern Biotech, final concentration […]) diluted in 1:100, and incubated on ice (protected from light) for 30 minutes. The cells were washed at least twice and analyzed by flow cytometry. The flow cytometry assay was performed on an Accuri C6 system (BD Biosciences), and a concentration-dependent curve was fitted with GraphPad according to the mean fluorescence intensity (MFI).

[4] = biological target: T3, mouse LAG-3 overexpressed on CHO cells; experiment: flow cytometry (MFI) on CHO cells overexpressing mouse LAG-3; fit value from the EC50 table on the sheet for a flat curve (see non_binding); table has no unit of its own (concentration axis in nM)

Row | Kd (human PD-L1) | koff (human LAG-3-His [1]) | kon (human LAG-3-His [1]) | Kd (human LAG-3-His [2]) | EC50 [3] | EC50 [4] | Binder
1 | 0.724 nM | – | – | – | – | – | HZ3266-IgG1N297A (antibody, V domains shown, also called anti-PD-L1 antibody (HZ3266-IgG1N297A)) VH: EVQLVQSGAEVKKPGATVKISCTASGFNIEDTYIHWVQQAPGQGLEWIGRIDPANDDTKYAPKFQGRATITADTSTDTAYMELSSLRSEDTAVYYCGRGLGRWFAYWGQGTLVTVSS VL: GIVMTQSPDSLAVSLGERATINCKASQDVINAVAWYQQKPGQSPKLLIYSASNRYTGVPDRFSGSGSGTDFTLTISSLQAEDLAVYYCQQHYSPPLTFGGGTKVEIKR
2 | – | 0.00389 s⁻¹ | 212000 M⁻¹ s⁻¹ | 18.3 nM | 2.14 nM | – | ADI-26789 (antibody, human IgG4 S228P, kappa, F234A L235A, V domains shown, Fully human antibody from yeast display; IgG4 heavy chain constant region with kappa light chain; also called anti-human LAG-3 antibody ADI-26789; parent antibody) VH: EVQLVESGGGLVQPGRSLRLSCAASGFTFDDYAMHWVRQAPGKGLEWVSGISWNSGDIGYADSVKGRFTISRDNAKNSLYLQMNSLRAEDTALYYCAKGGYDGSYYGMDVWGQGTTVTVSS VL: not shown
3 | – | – | – | – | – | 0.857 nM | 25F7 (antibody, V domains shown) VH: QVQLQQWGAGLLKPSETLSLTCAVYGGSFSDYYWNWIRQPPGKGLEWIGEINHNGNTNSNPSLKSRVTLSLDTSKNQFSLKLRSVTAADTAVYYCAFGYSDYEYNWFDPWGQGTLVTVSS VL: EIVLTQSPATLSLSPGERATLSCRASQSISSYLAWYQQKPGQAPRLLIYDASNRATGIPARFSGSGSGTDFTLTISSLEPEDFAVYYCQQRSNWPLTFGQGTNLEIK
4 | – | 0.0002 s⁻¹ | 237000 M⁻¹ s⁻¹ | 0.844 nM | 1.41 nM | ~0.7 nM | BAP050 (antibody, V domains shown) VH: QIQLVQSGPELKKPGETVKISCKASGFTLTNYGMNWVRQTPGKGLKWMGWINTDTGEPTYADDFKGRFAFSLETSASTASLQINNLKNADTATYFCARNPPYYYGTNNAEAMDYWGQGTAVTVSS VL: DIQMTQTTSSLSASLGDRVTISCSSSQDISNYLNWYQQKPDGTVKVLIYYTSTLHLGVPSRFSGSGSGTDYSLTISNLELEDIATYYCQQYYNLPWTFGGGTKLEIK
5 | – | 0.00385 s⁻¹ | 488000 M⁻¹ s⁻¹ | 7.88 nM | 2.91 nM | – | ADI-26869 (antibody, human IgG4 S228P, kappa, F234A L235A, V domains shown, Fully human antibody from yeast display; IgG4 heavy chain constant region with kappa light chain; expressed in HEK293 cells; also called anti-human LAG-3 antibody ADI-26869; parent antibody) VH: QLQLQESGPGLVKPSETLSLTCTVSGGSISSSDYYWGWIRQPPGKGLEWIGSIYYSGSTYYNPSLKSRVTISVDTSKNQFSLKLSSVTAADTAVYYCARVRTWDAAFDIWGQGTMVTVSS VL: DIQMTQSPSSLSASVGDRVTITCQASQDISNYLNWYQQKPGKAPKLLIYDASNLETGVPSRFSGSGSGTDFTFTISSLQPEDIATYYCQQVHALPPWTFGGGTKVEIKR

Reference: US20210371529A1 (Innovent, published 2021)
